Laboratory results reported in patent US20210179728A1 (OSE IMMUNOTHERAPEUTICS, published 2021).

What was measured:
[1] = biological target: T1, recombinant hSIRPa (Sino Biologicals, reference 11612-H08H) (human, UniProt P78324 31-370); test: ELISA on immobilized SIRPa-His, peroxidase anti-human IgG, DO 450nm [panel ICOSL]
T1 construct: also called SIRPa-His; human SIRPa-His; not shown: His tag (histidine tail)
Experimental: Method: For ELISA assay, recombinant hSIRPa (Sino Biologicals, Beijing, China; reference 11612-H08H) was immobilized on plastic at 0.5 μg/ml in carbonate buffer (pH9.2) and different modified anti-SIRPa antibodies were added to measure binding to SIRPa.

[2] = biological target: T2, CD28Fc (human, UniProt P10747 19-152, limits assumed); test: ELISA: modified antibody on immobilized SIRPa-His, CD28Fc added and detected with mouse anti-human CD28
T2 construct: not shown: Fc; not specified
Text: FIG. 24. Ligand binding assay with the different modified anti-SIRPa antibodies by ELISA.

[3] = biological target: T1, recombinant hSIRPa (Sino Biologicals, …); test: SPR (Biacore); SIRPa-His immobilized on CM5 chip, antibody injected
Experimental: FIG. 2. Affinity analysis by Biacore of anti-SIRP antibodies on human SIRPa recombinant protein. SIRPa-His recombinant protein was immobilized onto a CM5 chip at 5 μg/ml (500 RU) and the indicated antibodies were added at different concentration.
Method: Recombinant hSIRPa (Sino Biologicals, Beijing, China; reference 11612-H08H) was immobilized into a CM5 sensor chip (GeHealthcare; France) at 5 μg/ml (500 RU) and antibodies were applied at different concentrations with a flow rate of 40 μl/min. Analysis was performed with a BIAcore 3000 (Biacore, GeHealthcare).

[4] = biological target: T3, recombinant hSIRPg-His (Sino Biologicals, reference 11828-H08H) (human, UniProt Q9P1W8 29-360); test: Blitz, SIRPg-His on Ni-NTA biosensor
T3 construct: also called human SIRPg-His; not shown: His tag
T3 sequence (Q9P1W8 29-360 limits assumed): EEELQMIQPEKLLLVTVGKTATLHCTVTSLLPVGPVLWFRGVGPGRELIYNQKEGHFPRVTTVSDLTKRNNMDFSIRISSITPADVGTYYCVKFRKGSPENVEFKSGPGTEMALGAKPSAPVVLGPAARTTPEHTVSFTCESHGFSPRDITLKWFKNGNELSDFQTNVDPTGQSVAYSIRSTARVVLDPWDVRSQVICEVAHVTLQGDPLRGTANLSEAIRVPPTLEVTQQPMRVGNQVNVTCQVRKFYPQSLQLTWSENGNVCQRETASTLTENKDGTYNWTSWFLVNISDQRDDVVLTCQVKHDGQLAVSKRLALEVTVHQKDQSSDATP
Experimental: (§1) Method: This method was performed with a Blitz (Forte Bio; USA; reference C22-2 No 61010-1). Recombinant hSIRPg-His (Sino Biologicals, Beijing, China; reference 11828-H08H) was immobilized at 10 μg/ml by histidine tail into a Ni-NTA biosensor (Forte Bio; USA; reference 18-0029) for 30 seconds. Then, an anti-SIRPa antibody was associated at 20 μg/mL for 120 seconds. The dissociation of anti-SIRPa antibody was made in kinetics buffer for 120 seconds. Analysis of data was made with the Blitz pro 1.2 software, which calculated association constant (ka) and dissociation constant (kd) and determined the affinity constant KD […].

[5] = biological target: T4, recombinant hSIRPb-His (Antibodies-online, reference ABIN3077231) (human, UniProt Q5TFQ8 30-371); test: BLI (Blitz); SIRPb-His on Ni-NTA biosensor, antibody at 20 ug/ml [B, table A]
T4 construct: also called SIRPb-His (Blitz); not shown: His tag
T4 sequence (Q5TFQ8 30-371): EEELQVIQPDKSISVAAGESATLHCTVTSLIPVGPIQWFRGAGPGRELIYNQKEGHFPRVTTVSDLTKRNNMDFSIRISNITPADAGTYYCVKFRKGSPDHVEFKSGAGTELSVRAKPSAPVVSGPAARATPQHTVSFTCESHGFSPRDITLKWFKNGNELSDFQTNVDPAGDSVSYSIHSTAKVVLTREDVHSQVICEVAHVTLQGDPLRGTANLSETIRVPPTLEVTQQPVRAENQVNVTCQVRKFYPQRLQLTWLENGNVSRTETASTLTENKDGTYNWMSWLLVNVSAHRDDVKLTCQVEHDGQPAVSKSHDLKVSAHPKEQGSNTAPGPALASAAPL
Experimental: FIG. 7. (A) Affinity analysis by Blitz of anti-SIRP antibodies on human SIRPb recombinant protein. SIRPb-His recombinant protein was immobilized onto a NINTA biosensor and the indicated antibodies were added at 20 μg/ml. […] (B) Binding analysis of anti-SIRP antibodies (human SIRPb-His coating and anti-human kappa detection).
as §1, with “hSIRPb-His (Antibodies-online; USA;” for “hSIRPg-His (Sino Biologicals, Beijing, China;”, “ABIN3077231)” for “11828-H08H)”

[6] = biological target: T1, recombinant hSIRPa (Sino Biologicals, …); test: ELISA on immobilized hSIRPa-His, anti-human IgG detection, first experiment; first experiment
Experimental: Method: The binding activity of the anti-SIRPa antibodies was assessed by ELISA.

[7] = biological target: T1, recombinant hSIRPa (Sino Biologicals, …); test: competition ELISA on immobilized SIRPa-His; competitor biotinylated CD47-Fc at 6 ug/ml, streptavidin-peroxidase [second experiment table]
Experimental: (§2) Method: For competitive ELISA assay, recombinant hSIRPa (Sino Biologicals, Beijing, China; reference 11612-H08H) was immobilized on plastic at 0.5 μg/ml in carbonate buffer (pH9.2).

[8] = biological target: T3, recombinant hSIRPg-His (Sino …); test: BLI (Blitz); SIRPg-His on Ni-NTA biosensor, antibody at 10 ug/ml or 20 ug/ml (Example 9) [B, table A]
Experimental: FIG. 8. (A) Affinity analysis by Blitz of anti-SIRP antibodies on human SIRPg recombinant protein. SIRPg-His recombinant protein was immobilized onto a NINTA biosensor and the indicated antibodies were added at 10 μg/ml. […] (B) Binding analysis by ELISA assay of anti-SIRP antibodies on SIRPg (human SIRPg-His coating and anti-human kappa detection).
as §1

[9] = biological target: T1, recombinant hSIRPa (Sino Biologicals, …); test: ELISA on immobilized hSIRPa-His, anti-human IgG detection
[10] = biological target: T1, recombinant hSIRPa (Sino Biologicals, …); test: competition ELISA on immobilized SIRPa; competitor CD47Fc at 0.04 ug/ml, anti-human Fc detection
Experimental: as §2

[11] = biological target: T1, recombinant hSIRPa (Sino Biologicals, …); test: BLI (Blitz); SIRPa-His on Ni-NTA biosensor, antibody at 20 ug/ml, no SP-D [B, table A]
[12] = biological target: T1, recombinant hSIRPa (Sino Biologicals, …); test: BLI (Blitz); SIRPa-His on Ni-NTA biosensor pre-incubated with SP-D at 100 ug/ml, then antibody at 20 ug/ml [B, table A]
Experimental: FIG. 6. […] SIRPa-His recombinant protein was immobilized onto a NINTA biosensor at 10 μg/ml and the anti-SIRPa antibody was added at 20 μg/ml (saturating concentration).
In a first step, Sirp-a (His) recombinant protein (Sino Biologicals, Beijing, China; reference 11612-H08H) was immobilized at 10 μg/ml by histidine tail into a Ni-NTA biosensor (Forte Bio; USA; reference 18-0029) for 30 seconds. […] Then, anti-SIRPa antibodies were associated at 20 μg/mL (saturating concentration) for 120 seconds. The dissociation of anti-SIRPa antibody was made in kinetics buffer for 120 seconds. Analysis data was made with the Blitz pro 1.2 software, which calculated association constant (ka) and dissociation constant (kd) and determined the affinity constant KD […].

T1 sequence (P78324 31-370 limits assumed): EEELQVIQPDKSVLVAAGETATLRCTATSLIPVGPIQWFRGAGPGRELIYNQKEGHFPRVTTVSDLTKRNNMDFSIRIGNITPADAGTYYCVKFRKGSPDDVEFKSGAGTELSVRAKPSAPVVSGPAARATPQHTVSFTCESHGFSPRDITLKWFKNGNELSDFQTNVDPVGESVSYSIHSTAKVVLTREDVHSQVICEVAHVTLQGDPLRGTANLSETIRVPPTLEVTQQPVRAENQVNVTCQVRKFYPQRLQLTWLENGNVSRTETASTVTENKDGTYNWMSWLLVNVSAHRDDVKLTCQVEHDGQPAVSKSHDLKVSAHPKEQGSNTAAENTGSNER

Row | Binder | Kd [3] [nM] | koff [3] [s⁻¹] | kon [3] [M⁻¹ s⁻¹] | Kd [5] [nM] | koff [5] [s⁻¹] | kon [5] [M⁻¹ s⁻¹] | koff [8] [s⁻¹] | kon [8] [M⁻¹ s⁻¹] | further results
1 | modified anti-SIRPa HEFLB antibody with ECD of ICOSL on the heavy chain (antibody, human IgG4 S228P, kappa, as m25, ECD of ICOSL; also called VHprot+VL (ICOSL); HEF-ICOSL + LB) heavy: not shown light: DVVMTQSPLSLPVTLGQPASISCRSSQSLVHSYGNTYLYWFQQRPGQSPRLLIYRVSNRFSGVPDRFSGSGSGTDFTLKISRVEAEDVGVYYCFQGTHVPYTFGGGTKVEIKRTVAAPSVFIFPPSDEQLKSGTASVVCLLNNFYPREAKVQWKVDNALQSGNSQESVTEQDSKDSTYSLSSTLTLSKADYEKHKVYACEVTHQGLSSPVTKSFNRGEC |  |  |  |  |  |  |  |  | EC50 (read off the curve) [1]: ~8 ng/mL; binding result [2]: binds
2 | HFLB (antibody, human IgG4 S228P, kappa, V domains shown, humanized 18D5 variant) VH: EVQLVQSGAEVKKPGESLRISCKASGYSFTSYWVHWVRQMPGKGLEWMGNIDPSDSDTHYSPSFQGHVTLSVDKSISTAYLQLSSLKASDTAMYYCVRGGTGTMAYFAYWGQGTLVTVSS VL: DVVMTQSPLSLPVTLGQPASISCRSSQSLVHSYGNTYLYWFQQRPGQSPRLLIYRVSNRFSGVPDRFSGSGSGTDFTLKISRVEAEDVGVYYCFQGTHVPYTFGGGTKVEIKR | 0.315 | 0.000249 | 791000 | 26 | 0.00174 | 66900 | 0.0123 | 119000 | Kd [4]: 104 nM; EC50 [6]: 4 ng/mL; IC50 [7]: 183 ng/mL
3 | Kwar23 (antibody, V domains shown) VH: EVQLQQSGAELVKPGASVKLSCTASGFNIKDYYIHWVQQRTEQGLEWIGRIDPEDGETKYAPKFQDKATITADTSSNTAYLHLSSLTSEDTAVYYCARWGAYWGQGTLVTVSS VL: QIVLTQSPAIMSASPGEKVTLTCSASSSVSSSYLYWYQQKPGSSPKLWIYSTSNLASGVPARFSGSGSGTSYSLTISSMEAEDAASYFCHQWSSYPRTFGAGTKLELK | 0.367 | 8.95e-05 | 244000 | 2.77 | 0.000794 | 286000 | 0.000765 | 357000 | EC50 [9]: 3.3 ng/mL; Kd [8]: 2.14 nM
4 | mouse antibody 18D5 (antibody, mouse IgG2b, kappa, mouse monoclonal anti-human SIRPa antibody; also called m18D5; m18D5 clone) heavy: QVQLQQPGAELVRPGSSVKLSCKASGYTFTSYWVHWVKQRPIQGLEWIGNIDPSDSDTHYNQKFKDKASLTVDKSSSTAYMQLSSLTFEDSAVYYCVRGGTGTMAWFAYWGQGTLVTVSAAKTTPPSVYPLAPGCGDTTGSSVTLGCLVKGYFPESVTVTWNSGSLSSSVHTFPALLQSGLYTMSSSVTVPSSTWPSQTVTCSVAHPASSTTVDKKLEPSGPISTINPCPPCKECHKCPAPNLEGGPSVFIFPPNIKDVLMISLTPKVTCVVVDVSEDDPDVQISWFVNNVEVHTAQTQTHREDYNSTIRVVSTLPIQHQDWMSGKEFKCKVNNKDLPSPIERTISKIKGLVRAPQVYILPPPAEQLSRKDVSLTCLVVGFNPGDISVEWTSNGHTEENYKDTAPVLDSDGSYFIYSKLNMKTSKWEKTDSFSCNVRHEGLKNYYLKKTISRSPGK light: DVVMTQTPLSLPVSLGDQASISCRSSQSLVHSYGNTYLYWYLQKPGQSPKLLIYRVSNRFSGVPDRFSGSGSGTDFTLKISRVEAEDLGVYFCFQGTHVPYTFGSGTKLEIKRADAAPTVSIFPPSSEQLTSGGASVVCFLNNFYPKDINVKWKIDGSERQNGVLNSWTDQDSKDSTYSMSSTLTLTKDEYERHNSYTCEATHKTSTSPIVKSFNRNEC | 0.193 | 1.2e-05 | 62300 |  |  |  |  |  | IC50 (read off the curve) [10]: ~500 ng/mL; Kd [11]: 111 nM; koff [11]: 0.00176 s⁻¹; kon [11]: 15800 M⁻¹ s⁻¹; Kd [12]: 28.6 nM; koff [12]: 0.0109 s⁻¹; kon [12]: 380000 M⁻¹ s⁻¹
